Measured values: patent US20140294861A1 (University of Pennsylvania, published 2014)

Columns and labels:
[1] = target: T1, human B7-H4 expressed at the cell surface (human, UniProt Q7Z7D3 25-282); assay: cell-based or functional assay
T1 sequence (looked up): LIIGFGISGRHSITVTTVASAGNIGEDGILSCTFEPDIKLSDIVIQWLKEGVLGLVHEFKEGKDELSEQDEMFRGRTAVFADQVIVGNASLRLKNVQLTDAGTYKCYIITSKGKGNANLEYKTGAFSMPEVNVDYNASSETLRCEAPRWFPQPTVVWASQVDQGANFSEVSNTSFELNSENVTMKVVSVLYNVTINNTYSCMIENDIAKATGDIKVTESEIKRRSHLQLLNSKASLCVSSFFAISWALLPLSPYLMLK

[2] = target: T1, human B7-H4 expressed at the cell …; assay: flow cytometry on macrophages
[3] = target: T2, recombinant B7-H4 protein (extracellular domain, IgC+IgV, fused to 6xHIS Tag) (human, UniProt Q7Z7D3 29-259, biotinylated in the capture ELISA (site not stated)); assay: capture ELISA, immobilized scFv, biotinylated rB7-H4, SA-HRP
T2 construct: also called rB7-H4; rhB7-H4
T2 sequence: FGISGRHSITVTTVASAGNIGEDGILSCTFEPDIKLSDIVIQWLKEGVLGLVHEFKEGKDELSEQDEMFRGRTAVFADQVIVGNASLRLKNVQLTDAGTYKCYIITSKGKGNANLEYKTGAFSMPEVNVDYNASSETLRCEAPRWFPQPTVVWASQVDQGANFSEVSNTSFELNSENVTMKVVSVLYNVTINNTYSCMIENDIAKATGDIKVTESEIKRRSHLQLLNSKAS
Description: FIG. 6A is a schematic representation of protein-based (FIG. 6B) and cell-based isolation (FIG. 6C) strategies. Protein-based and cell-based isolated anti-B7-H4 scFvs were plastic-immobilized and incubated with serial dilutions of biotinylated recombinant B7-H4 (black diamonds) or irrelevant control antigen (BSA, grey triangles). Protein binding to scFv was detected with SA-HRP. Colorimetric signal was developed with TMB substrate solution, quenched with sulfuric acid and read at 450 nm on a Biotek ELISA reader.
The yeast-display scFv library derived from ovarian cancer patients was first screened by magnetic and flow sorting for anti-B7-H4 scFv using progressively decreasing concentrations of human biotinylated B7-H4 recombinant protein (rhB7-H4). Briefly, the library was enriched magnetically 3 times for scFv that bound to 1 ug/ml biotinylated rhB7-H4, and two times flow sorted with 1 ug/ml and 0.5 ug/ml biotinylated rhB7-H4. Selected yeast-display scFv were flow sorted for c-myc/B7-H4 double positive clones. […] Binding to serial dilutions of biotinylated rB7-H4 or control protein was detected using streptavidin-HRP. Colorimetric signals were developed with TMB substrate solution quenched with sulfuric acid and read at 450 nm on a […] Sequencing of scFv clones 26 and 56 was identified 2 unique clones that were then produced and Ni purified.

B1: anti-B7H4 scFv clone 3#54 (scFv)
scFv: RPVLTQPPSAAGTPGQRVTISCSGSSSNIGSNYVYWYQQLPGMAPKLLIYTNNQRPSGVPGRFSGSKSGTSASLAISGLRSEDEADYYCAAWDDSLNGWVFGGGTELTVLGGSSRSSSSGGGGSGGGGQVQLQESGPGLVKPSETLSLTCNVSGRSVSSGFYWSWIRQRPGKGLEWVGSIYRSGLTYYNPSLKSRVTISVDTSKNQFSLKLSSVTAADTAVYYCARATPWYYYGMDVWGQGTTVTVSSFEGSEQ
In the case of B1, the “IFN-γ production of MART-1 TCR T cells in the presence of B7-H4+ TAMs” value [1] is reported as > 2 fold.

B2: anti-B7H4 scFv clone 3#68 (scFv)
scFv: QPGLTQPPSASGTPGQRVTISCSGSSSNIGSNYVYWYQQFPGTAPKLLIYRNNQRPSGVPDRFSGSKSGTSASLAISGLRSEDEADYYCAAWDDSLSVWVFGGGTKVTVLGGSSRSSSSGGSGSGGGGQVTLKESGAEVKNPGSSVKVSCKASGGTFSSYAISWLRQAPGQGLEWMGWINPNSGGSDYAQRFQGRVTMTRDTSINTVYMELSRLRSDDTAVYYCARVEKRGYYYGMDVWGQGTMVTVSSFEGSEQ
For B2, the “IFN-γ production of MART-1 TCR T cells in the presence of B7-H4+ TAMs” value [1] was > 2 fold.

B3: anti-B7H4 scFv clone 56 (scFv)
scFv: QPVLTQSHSVSESPGKTVTITCTGSGGNIATQYVQWYQQRPGSGPTTVIYDDDQRPSGVPDRFTGSIDSSSNSASLTISGLKTEDEADYYCQSYDSTNHGVFGGGAKVTVLGGSSRSSSSGGGGSGGGGQVQLQQWGPGLVKPSETLSLTCTVSGGSISSSSYYWGWIRQPPGKGLEWIGSIYYSGSTYYNPSLKSRVTISVDTSKNQFSLKLSSVTAADTAVYYCARLSKGYSSSWAYSYYGPDAWGQGTMVTVSSFEGSEQ
notes: Human scFv from a yeast-display library, made soluble from the yeast secretion vector p416-BCCP; Soluble scFv was detected through V5 and purified on Ni; also called scFv #56; 56 scFv
B3: binds [2]; binds [3].

B4: anti-B7H4 scFv clone 26 (scFv)
scFv: DIVMTQTPATLSVSPGKRATLSCRASQSVSSNYLAWYQQKPGQAPRLLIYGASRRATGIPDRFSGSGSGTDFTLTISSLQAEDVAVYYCQQYGSSPRTFGQGTKLEIKGGSSRSSSSGGGGSGGGGQVTLKESGAEVKNPGSSVKVSCKASGGTFSSYAISWLRQAPGQGLEWMGWINPNSGGSDYAQRFQGRVTMTRDTSINTVYMELSRLRSDDTAVYYCARVEKRGYYYGMDVWGQGTMVTVSSFEGSEQ
For B4, the “IFN-γ secretion of MART-1 TCR T cells in the presence of B7-H4+ TAMs” value [1] was 1.5 fold.
